Tested on: MS2 coat protein
Test: apparent KD of MS2 coat protein; designed switch direction (-1 OFF switch, 1 ON switch): -1; higher = weaker reporter binding
Procedure, shortened: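 SNAP-549-labelled MS2 coat protein was titrated, doubling from 0.7 or 1.5 nM to 3 µM, over designed RNA switches transcribed on Illumina chips by stalled E. coli RNA polymerase. Runs were done without input, with 200 uM small-molecule ligand, or with an oligonucleotide input. Apparent KD is the per-design median over clusters of curve-fitted normalised fluorescence.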

[1] = Eterna round: R95, input ligand: FMN 200 uM
[2] = Eterna round: R95, input ligand: microRNA oligo, concentration not stated
[3] = Eterna round: R95, input ligand: none
[4] = input ligand: microRNA oligo, concentration not stated

Sequence | apparent KD of MS2 coat protein (input ligand: FMN 200 uM) [nM] | apparent KD of MS2 coat protein (input ligand: none) [nM] | apparent KD of MS2 coat protein [1] [nM] | apparent KD of MS2 coat protein [2] [nM] | apparent KD of MS2 coat protein [3] [nM] | apparent KD of MS2 coat protein [4] [nM]
CUGAGCUGAGGAUAUACAUGAGGAUCACCCAUGUUAAGCAGCUUGCGUAAAAGCAGAUGUAGAAGGCAGUUCGG [Mod of JL 18 - Jieux - Exclusion 3] (Eterna round: R97, puzzle: Exclusion 3) | 18.1 | 13.7 | – | – | – | –
CUGAGGUAGCGGUCCUAUGACAUGAGGAUCACCCAUGUACCUUGCUACGAGCUUUUUGCUCGUCUUAUAAUUCUCGG [JL Atriat mod 3] (puzzle: Sensor v3, turn-off variant 1) | – | – | 466 | 91.5 | 526 | –
CUGAGGUAGCGGUCCUAUUACAUGAGGAUCACCCAUGUACCUUGCUUCGAGCUUUUAGCUCGUCUUAUGAUUCUCGG [Mat - Sensor v3 - turn-off var 1 - JL Mod - D38] (puzzle: Sensor v3, turn-off variant 1) | – | – | 277 | 447 | 381 | –
CUGAGUAGUCAGGAUAUGCUGUACAAAAGUACAGCAGAAGGGAUUACAUGAGGAUCACCCAUGUGUACUUCAUG [)mei Ex6 B20] (Eterna round: R97, puzzle: Exclusion 6) | 401 | 184 | – | – | – | –
CUGAUGUGAGGAUAUCUACGCCAAGUGUUUCACUUGGCGCAAGAGAAGGCACAUGAGGAUCACCCAUGUACUUC [jl-ex4-4.37 ViennaUCT mod] (Eterna round: R97, puzzle: Exclusion 4) | 137 | 22.8 | – | – | – | –
CUGCUCCGUGUAGGAUAUCCGUGCAACCAAUACGGAGAAGGACAUGAGGAUCACCCAUGUAUGUUAUUAUCACGUGAAGCGUCC [Design 24] (Eterna round: R96, puzzle: Exclusion NG 1) | 23.1 | 24.3 | – | – | – | 17
CUGCUCCGUGUAGGAUAUGCAUACUCCCAUUAUGCAGAAGGACAUGAGGAUCACCCAUGUAUGUUAUUAUCAUGUGUUGCAUGC [Design 11] (Eterna round: R96, puzzle: Exclusion NG 1) | 164 | 37.3 | – | – | – | 33.9
CUGCUCCGUGUAGGAUAUGCAUAUUCCCAUUAUGCAGAAGGACAUGAGGAUCACCCAUGUAUGUUAUUAUCAUGUGUUACAUGC [Design 9] (Eterna round: R96, puzzle: Exclusion NG 1) | 203 | 33.2 | – | – | – | 24.9
CUGCUGGAGCGUCGCUUUGGUCGUACAUGAGGAUCACCCAUGUAGGAUAUGGUAAAAUUCGCCUGCUAGAAGGAUAGAGUGGUC [salish99_ExNG3_r04_618] (Eterna round: R96, puzzle: Exclusion NG 3) | 142 | 78.9 | – | – | – | 93.6
CUGGACCCGGUAGGAUAUAUUGUGGGCGGGCGUGGAACGACAUGAGGAUCACCCAUGUGAUUGAGGUAGAAGGGCCGAGAGGUU [Excl-NG2-LRO18] (Eterna round: R96, puzzle: Exclusion NG 2) | 52.7 | 61.8 | – | – | – | 33.8
CUGGUCCGAGGAUAUAUUAUGUGAUACAUGAGGAUCACCCAUGUUAUAUGAUGGAUAUAAAUAGAAGGCGGACUAG [Mat - Exclusion 5 - JL mod - D66] (puzzle: Exclusion 5) | – | – | 48.6 | 42.4 | 35.8 | –
CUGGUGUGAGGAUAUCAGGACACGUACGCGGGCAUGUCAAAUGAGAAGGCACAUGAGGAUCACCCAUGUGGGAC [Geve] (puzzle: Exclusion 4) | – | – | – | 26 | – | –
CUGUGCACGCUGCGAUCCUACAUGAGGAUCACCCAUGUGGUCUGGUGGCGUGGGUCACCGGACUUGGCUCGUCUUGC [salish99_S_TOV1_R5_071] (Eterna round: R97, puzzle: Sensor, turn-off variant 1) | 31.4 | 31.6 | – | – | – | –
CUGUGCACGCUGCGGUCCUACAUGAGGAUCACCCAUGUGGUCUGGUGGCGUGGGUCGCCGGACUUGGCUCGUCUUGU [salish99_S_TOV1_R5_024] (Eterna round: R97, puzzle: Sensor, turn-off variant 1) | 18.2 | 19.3 | – | – | – | –
CUGUUUUUCGCAGGAUAUGCUCCUCCAUUAUUUGCAGAAGGGCGUUGAACAUGAGGAUCACCCAUGUAUGGAAAUGACUAUUGC [JR_ExcNG1_Sub068] (Eterna round: R96, puzzle: Exclusion NG 1) | 22.1 | 18.2 | – | – | – | 14.9
CUUAAGGCAGGAUAUGCUGUUUGUGACAUGAGGAUCACCCAUGUGAUGCAGUUUGGGUGUGCAGAAGGGCCUGAGU [JR_E5_Sub032] (puzzle: Exclusion 5) | – | – | 96.4 | 71.5 | 131 | –

Sequence | apparent KD of MS2 coat protein (input ligand: FMN 200 uM) [nM] | apparent KD of MS2 coat protein (input ligand: none) [nM] | apparent KD of MS2 coat protein [1] [nM] | apparent KD of MS2 coat protein [2] [nM] | apparent KD of MS2 coat protein [3] [nM] | apparent KD of MS2 coat protein [4] [nM]
CUUAGACAUGAGGAUCACCCAUGUCAGGAUAUCGUCUACCUGUGGAAACACAGGUAGACGAGAAGGGAUGUGUU [SS1 Omei 3] (puzzle: Exclusion 1) | – | – | – | 37.8 | – | –
CUUAGACAUGAGGAUCACCCAUGUGAGGAUAUGAUGCAGCAGUGGUCUACGCUGUGCAUCAGAAGGCACAUGUG (puzzle: Exclusion 1) | – | – | – | 62.4 | – | –
CUUAGCCUAAAAUCACGCAAGCUUUUUGCUUGUCUAAAGACAUGAGGAUCACCCAUGUCCGGGCUGAACUUAUGGAA [Atqusoen] (puzzle: Sensor v3, turn-off variant 2) | – | – | 17.7 | 18.1 | 16 | –
CUUAUGUGAGGAUAUCAGUAGUAAUACAAUAGUAUUACUACUGAGAAGGCACAUGAGGAUCACCCAUGUUCUUC [Exclusion 4 - Mod Omei Ex4 344 mod v.2] (puzzle: Exclusion 4) | – | – | – | 103 | – | –
CUUCACCCACCAAAGCUCACCCACAUACCUGCUCUGGUGACAUGAGGAUCACCCAUGUUUUUUGCCCGUCUUAUCUU [Leso] (puzzle: Sensor v3, turn-off variant 2) | – | – | 40.7 | 163 | 41.4 | –
CUUCGGCGAGGAUAUUACGAGAACGACAUGAGGAUCACCCAUGUGAUCGAGGUUGCCUCGUAAGAAGGCGCAUAUA [Reederedle] (Eterna round: R97, puzzle: Exclusion 5) | 1050 | 244 | – | – | – | –
CUUCUCAGAGGAUAUCACGGUAAUAACAUGAGGAUCACCCAUGUGGAAUUCGUGUCCCUGUGAGAAGGCUGAGAAG [Bezavere] (puzzle: Exclusion 5) | – | – | 33.2 | 12.2 | 16 | –
CUUCUGUCAGGAUAUGCGAAUCACCGCUGGGUCAGCGGCGAGCAGAAGGGACAUGAGGAUCACCCAUGUAAAAU [Quriveer] (Eterna round: R97, puzzle: Exclusion 4) | 211 | 51.3 | – | – | – | –
CUUGAGCAGGUAGGAUAUACGAAGUGUCGGCGAGUAGAAGGACCUGCGAUCCACUUGAGGAUCACCCAAGUUCGCAGGAGAACA [Mutated MS2 EX1.1] (Eterna round: R96, puzzle: Exclusion NG 1) | 241 | 61.3 | – | – | – | 32.4
CUUGCGGACAAAGGAUAUUGCGGUGACCGGCUCGGCGUACCGAGCCUACAUGAGGAUCACCCAUGUAAGAAGGUUGACGCUGGU [JL ViennaUCT Qudice mod 4] (Eterna round: R96, puzzle: Exclusion NG 2) | 106 | 27.6 | – | – | – | 20
CUUGUACAUGAGGAUCACCCAUGUUAGGAUAUCUCGCCGUCGGCUUGCCGACGGUAUUAGAGAAGGGACUAGGG [JL Tixe mod 5] (puzzle: Exclusion 1) | – | – | – | 38.8 | – | –
CUUGUGUAAGGAUAUAUGAGUCACGGAAAUAAACCGUGAAGAUAGAAGGUACAUGAGGAUCACCCAUGUAAAAC [Mod of Anonveat 5 - Jieux - Exclusion 4] (Eterna round: R97, puzzle: Exclusion 4) | 224 | 35.2 | – | – | – | –
CUUGUGUGAGGAUAUGAAUUACCUGGUCAAACAGGCUCCUGUCAGAAGGCACAUGAGGAUCACCCAUGUGGGCA [Dibilela] (Eterna round: R97, puzzle: Exclusion 4) | 121 | 310 | – | – | – | –
CUUGUGUUAGGAUAUGUUAAGCCACCAACCAGUGGAUCAGGACAGAAGGAACAUGAGGAUCACCCAUGUAAAAG [Inedar] (Eterna round: R97, puzzle: Exclusion 4) | 25.3 | 67.4 | – | – | – | –
CUUGUUUAAGUGAGGAUAUACUGUUAGUAAUGAUUGUAGAAGGUACAUGAGGAUCACCCAUGUUUAUUUAUAUU [JR_BME4_Sub042] (puzzle: Brourd's mod of Exclusion 4) | – | – | – | 16.4 | – | –

Source: the supplement of paper PMC9170038
